The values that follow come from publication PMC7603314, “Broad-complex transcription factor mediates opposing hormonal regulation of two phylogenetically distant arginine kinase genes in Tribolium castaneum” (Communications Biology, 2020).

Substrate in this data set: N=C(N)NCCC[C@H](N)C(=O)O
Briefly: purified protein. The format is biochemical, Tribolium castaneum. Particulars: forward reaction, 0.9 mM ATP, 20 mM MgCl2, 50 mM Tris-HCl pH 7.5, 30 °C, L-arginine varied 0.2-10 mM.

B1: TcAK1 (Tribolium castaneum) (protein)
chain: MVDAAVLEKLEAGFKKLEASDSKSLLKKYLTRELFDKLKTKKTSFGSTLLDVIQSGLENHDSGIGIYAPDADSYSVFADLFDPIIEDYHGGFKKTDKHPPKDWGDVNAFGNLDPAGEFVVSTRVRCGRSLEGYPFNPCLTEEQYKEMEQKVSSTLSGLEGELKGTFYPLTGMSKEVQQKLIDDHFLFKEGDRFLQAANACRFWPTGRGIFHNDAKTFLVWCNEEDHLRIISMQMGGDLGQVYRRLVTGVNDIEKRLPFSHSDRFGFLTFCPTNLGTTVRASVHIKVPKLAANKAKLDEVAAKFNLQVRGTRGEHTEAEGGVYDISNKRRMGLTEFDAVKEMYDGISEIIKMEKEL
notes: His-tagged in pQE-30-XA, E. coli M15, Ni-NTA; signature CP(S/T)N(I/L)GT at 270-276
Usually Km stands for the substrate concentration at which the rate is half of its maximum. Usually kcat stands for the maximal rate divided by the concentration of active sites. As usually defined, the kcat/Km is the second-order rate constant that governs catalysis at low substrate concentration. For B1, the Km was 1500 ± 20 µM, the kcat is 172.7 ± 5.8 s⁻¹ and the kcat/Km came to 113000 M⁻¹ s⁻¹.

B2: TcAK2 (Tribolium castaneum) (protein)
chain: MAKAKCHNCETKCGKGKINPEVLTKLEDGFRRLATSNSQSLLKKYLTQAVFDKLKSKKTGFGSTLLDCIQSGLENPDSNIGVYAPDPEAYTVFAELFDPIIDEYHGGFKKTDQHPASTWGDLKSIGDVDPDQKYVVSTRIRCGRSLAGYPFNPCLTEAQYKEMEKKVSGTLMSLTGELKGKYYPLTGMSKRDQQQLIDDHFLFKEGDRFLQAANACRFWPTGRGIFHNTKKTFLVWLNEEDHLRIISMQKGGNVGEVYQRLVCAVEEIETKLKFSRSDRFGYLTFCPTNLGTTIRASVHIQVPKLAKDKAKLEAVANQFNLQVRGTRGEHSEAEEGVYDISNRRRLGLTEYDAVKEMHDGILKIIEMESCM
notes: His-tagged in pQE-30-XA, E. coli M15, Ni-NTA; signature CP(S/T)N(I/L)GT at 286-292
As to B2, the Km is 3700 ± 40 µM, the kcat was 12.7 ± 0.95 s⁻¹ and the kcat/Km came to 3500 M⁻¹ s⁻¹.
